Assays:
Assay in all cases: peptide EIA, 2 ug/mL IgG;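 also: purified mouse IgG binding to individually well-coated synthetic peptides, detected with peroxidase anti-mouse IgG Fc and o-phenylenediamine, IgG incubated at least 1 h at room temperature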
HCV core peptide 75 = molecular target: T1, HCV core peptide 75 (hepatitis C virus, N-terminal biotin; C-terminal amide)
T1 construct: range 149-163
Procedure: (§1) The coated plates were kept dry in a sealed foil pouch and stored at <10 degrees C. until ready for use. A peptide coated plate for each test antibody was blocked using 3% BSA in PBS with 0.5% Tween 20. The blocked plates were washed with distilled water and a 2 ug/mL solution of purified IgG from each test sample diluted in BSA block solution was added to each peptide coated well of the blocked plate and allowed to incubate at room temperature for at least one hour. Following incubation the plates were washed with distilled water. A 200 ng/mL solution of peroxidase labeled F(ab′)2 fragment goat anti-mouse IgG Fc fragment specific (Jackson Immunoresearch) in BSA block solution was added to all wells and incubated at room temperature for 30 minutes. The plates were washed with distilled water and o-phenylenediamine substrate was used as the chromagen to generate signal. Plates were read at 492 nm and the results were analyzed.

HCV core peptide 27 = molecular target: T2, HCV core peptide 27 (hepatitis C virus, N-terminal biotin; C-terminal amide)
T2 construct: range 53-67
Procedure: as §1

HCV core peptide 69 = HCV core peptide 69 (hepatitis C virus, N-terminal biotin; C-terminal amide)
Procedure: as §1

HCV core peptide 53 = molecular target: T3, HCV core peptide 53 (hepatitis C virus, HELM PEPTIDE1{[O=C1N[C@H]2[C@H](CS[C@H]2CCCCC(=O)[*:2])N1].S.G.S.G.P.S.W.G.P.T.D.P.R.R.R.S.R.N.L.[am]}$$$$V2.0; SMILES …)
T3 peptide: SGSGPSWGPTDPRRRSRNL
Procedure: as §1

HCV core peptide 89 = HCV core peptide 89 (hepatitis C virus, N-terminal biotin; C-terminal amide)
Procedure: as §1

HCV core peptide 40 = molecular target: T4, HCV core peptide 40 (hepatitis C virus, N-terminal biotin; C-terminal amide)
T4 construct: range 79-93
Procedure: as §1

HCV core peptide 7 = molecular target: T5, HCV core peptide 7 (hepatitis C virus, N-terminal biotin; C-terminal amide)
T5 construct: range 13-27
Procedure: as §1

HCV core peptide 1 = molecular target: T6, HCV core peptide 1 (hepatitis C virus, N-terminal biotin; C-terminal amide)
T6 construct: range 1-15
Procedure: as §1

HCV core peptide 55 = molecular target: T7, HCV core peptide 55 (hepatitis C virus, HELM PEPTIDE1{[O=C1N[C@H]2[C@H](CS[C@H]2CCCCC(=O)[*:2])N1].S.G.S.G.P.T.D.P.R.R.R.S.R.N.L.G.K.V.I.[am]}$$$$V2.0; SMILES …)
T7 construct: also called aa 109-123
T7 peptide: SGSGPTDPRRRSRNLGKVI
Procedure: as §1

HCV core peptide 72 = molecular target: T8, HCV core peptide 72 (hepatitis C virus, N-terminal biotin; C-terminal amide)
T8 construct: range 143-157
Procedure: as §1

HCV core peptide 62 = molecular target: T9, HCV core peptide 62 (hepatitis C virus, N-terminal biotin; C-terminal amide)
T9 construct: range 123-137
Procedure: as §1

HCV core peptide 84 = HCV core peptide 84 (hepatitis C virus, N-terminal biotin; C-terminal amide)
Procedure: as §1

HCV core peptide 26 = molecular target: T10, HCV core peptide 26 (hepatitis C virus, N-terminal biotin; C-terminal amide)
T10 construct: range 51-65
Procedure: as §1

HCV core peptide 22 = molecular target: T11, HCV core peptide 22 (hepatitis C virus, N-terminal biotin; C-terminal amide)
T11 construct: range 43-57
Procedure: as §1

HCV core peptide 44 = HCV core peptide 44 (hepatitis C virus, N-terminal biotin; C-terminal amide)
Procedure: as §1

HCV core peptide 81 = molecular target: T12, HCV core peptide 81 (hepatitis C virus, N-terminal biotin; C-terminal amide)
T12 construct: range 161-175
Procedure: as §1

HCV core peptide 32 = molecular target: T13, HCV core peptide 32 (hepatitis C virus, N-terminal biotin; C-terminal amide)
T13 construct: range 63-77
Procedure: as §1

HCV core peptide 18 = molecular target: T14, HCV core peptide 18 (hepatitis C virus, N-terminal biotin; C-terminal amide)
T14 construct: range 35-49
Procedure: as §1

HCV core peptide 24 = molecular target: T15, HCV core peptide 24 (hepatitis C virus, N-terminal biotin; C-terminal amide)
T15 construct: range 47-61
Procedure: as §1

HCV core peptide 34 = molecular target: T16, HCV core peptide 34 (hepatitis C virus, N-terminal biotin; C-terminal amide)
T16 construct: range 67-81
Procedure: as §1

HCV core peptide 3 = molecular target: T17, HCV core peptide 3 (hepatitis C virus, N-terminal biotin; C-terminal amide)
T17 construct: range 5-19
Procedure: as §1

HCV core peptide 5 = molecular target: T18, HCV core peptide 5 (hepatitis C virus, N-terminal biotin; C-terminal amide)
T18 construct: range 9-23
Procedure: as §1

HCV core peptide 19 = molecular target: T19, HCV core peptide 19 (hepatitis C virus, N-terminal biotin; C-terminal amide)
T19 construct: range 37-51
Procedure: as §1

HCV core peptide 64 = HCV core peptide 64 (hepatitis C virus, N-terminal biotin; C-terminal amide)
Procedure: as §1

HCV core peptide 74 = HCV core peptide 74 (hepatitis C virus, N-terminal biotin; C-terminal amide)
Procedure: as §1

HCV core peptide 54 = molecular target: T20, HCV core peptide 54 (hepatitis C virus, HELM PEPTIDE1{[O=C1N[C@H]2[C@H](CS[C@H]2CCCCC(=O)[*:2])N1].S.G.S.G.W.G.P.T.D.P.R.R.R.S.R.N.L.G.K.[am]}$$$$V2.0; SMILES …)
T20 peptide: SGSGWGPTDPRRRSRNLGK
Procedure: as §1

HCV core peptide 67 = HCV core peptide 67 (hepatitis C virus, N-terminal biotin; C-terminal amide)
Procedure: as §1

HCV core peptide 49 = molecular target: T21, HCV core peptide 49 (hepatitis C virus, HELM PEPTIDE1{[O=C1N[C@H]2[C@H](CS[C@H]2CCCCC(=O)[*:2])N1].S.G.S.G.L.L.S.P.R.G.S.R.P.S.W.G.P.T.D.[am]}$$$$V2.0; SMILES …)
T21 peptide: SGSGLLSPRGSRPSWGPTD
Procedure: as §1

HCV core peptide 58 = HCV core peptide 58 (hepatitis C virus, N-terminal biotin; C-terminal amide)
Procedure: as §1

HCV core peptide 37 = molecular target: T22, HCV core peptide 37 (hepatitis C virus, N-terminal biotin; C-terminal amide)
T22 construct: range 73-87
Procedure: as §1

B1: Neo4 mouse monoclonal antibody (antibody, V domains shown)
VH: QIQLKESGPAVIKPSQSLSLTCIVSGFSITSSVYCWQWIRQPPGKGLEWMGRICYDGSVDYSPSITSRGTISRDTSLNKVFFQLSSVTNEDTAMYYCSRENHIDYYDTTYPSFDVWGAGTTVTVSS
VL: DIVLTQSPASLIVSLGQRATISCRASKSVNEYGYTYMHWYQQKPGLPPKLLIYLASNLDSGVPARFSGSGSGTDFTLNIHPVEEEDAATYYCQHSRELPYTFGGGTKLEIKR
notes: Mouse hybridoma antibody, isotype IgG1, purified with Protein G; also called HCV Neo4
OD (A492 nm) (HCV core peptide 75): 0.1 OD | OD (A492 nm) (HCV core peptide 27): 0.04 OD | OD (A492 nm) (HCV core peptide 69): 0.05 OD | OD (A492 nm) (HCV core peptide 53): 0.96 OD | OD (A492 nm) (HCV core peptide 89): 0.05 OD | OD (A492 nm) (HCV core peptide 40): 0.05 OD | OD (A492 nm) (HCV core peptide 7): 0.07 OD | OD (A492 nm) (HCV core peptide 1): 0.06 OD | OD (A492 nm) (HCV core peptide 55): 0.97 OD | OD (A492 nm) (HCV core peptide 72): 0.04 OD | OD (A492 nm) (HCV core peptide 62): 0.05 OD | OD (A492 nm) (HCV core peptide 84): 0.05 OD | OD (A492 nm) (HCV core peptide 26): 0.04 OD | OD (A492 nm) (HCV core peptide 22): 0.07 OD | OD (A492 nm) (HCV core peptide 44): 0.05 OD | OD (A492 nm) (HCV core peptide 81): 0.04 OD | OD (A492 nm) (HCV core peptide 32): 0.06 OD | OD (A492 nm) (HCV core peptide 18): 0.05 OD | OD (A492 nm) (HCV core peptide 24): 0.05 OD | OD (A492 nm) (HCV core peptide 34): 0.04 OD | OD (A492 nm) (HCV core peptide 3): 0.05 OD | OD (A492 nm) (HCV core peptide 5): 0.05 OD | OD (A492 nm) (HCV core peptide 19): 0.05 OD | OD (A492 nm) (HCV core peptide 64): 0.04 OD | OD (A492 nm) (HCV core peptide 74): 0.05 OD | OD (A492 nm) (HCV core peptide 54): 1.01 OD | OD (A492 nm) (HCV core peptide 67): 0.05 OD | OD (A492 nm) (HCV core peptide 49): 0.05 OD | OD (A492 nm) (HCV core peptide 58): 0.05 OD | OD (A492 nm) (HCV core peptide 37): 0.04 OD

Source: patent publication US20190170753A1 (ICAHN SCHOOL OF MEDICINE AT MOUNT SINAI, published 2019)
